± gives the half width of the 95% confidence interval.
test: folding stability dG unfold from trypsin proteolysis; higher = more stable
Summary of the method: (§1)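 Designed mini-proteins (under 80 residues, no cysteine) in a PA-tagged cDNA display construct were digested with trypsin and chymotrypsin. Each protease was used at 11 concentrations (threefold dilutions) plus a no-protease condition, followed by sequencing. K50 was inferred by Bayesian fitting of sequencing counts, and unfolding free energy was derived against a sequence-predicted unfolded-state K50 and a shared folded-state K50, per protease or combined. Only designs with AlphaFold2 dimer inter-PAE above 15 were kept.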

Row | Sequence | folding stability dG unfold [kcal/mol]
1 | SAGEVKPGETVTLTIVLSKEELEKLEELAKALPGVEVTEVKVEKLPDGLVRVTITVTKEALEKLKELLESAG [r5_554_TrROS_Hall] | 3.28 ± 0.21
2 | SAGGSAGGSAGGMITVEYDPSRPVYTVTVTDPTTGKTTVIDVPRDDLEQALALAEALLKSAGGSAGGSAGGS [r10_1117_JUSTAS] | 0.647 ± 0.046
3 | SAGGSASLFIPVPPTDTSPVTVEITIGNSKYRATLTVDPNNPNLMTVTLTDPNGGATTTETVPLLDSAGGSA [r15_328_JUSTAS] | 1.8 ± 0.034
4 | SAGGSAGGSAGGEEPVTFMVRIPIRRRDPDGNPEPVAEIDINVTMPPEDAERIIKELIKSAGGSAGGSAGGS [r10_574_TrROS] | -0.245 ± 0.34
5 | SAGMVKIEIEKKEDGEILITITAPSEEELKKLAEELAKELAKKLGIEEIEVKVEKLENGEYKVTIRIKKSAG [r5_772_TrROS_Hall] | 2.99 ± 0.14
6 | SAGGSAGGSAGSTVTLTVDPDTNVATLTAIIGGKPVTATLTFIPNTGKARLPDGTWIDISSAGGSAGGSAGG [r11_395_TrMRF] | 1.43 ± 0.034
7 | SAGGSKIRIVEIQPSNGFTIKIRPKNGKKMTIPIPPDDMNDPENWERFARTLAKWFEKNGVKDIEISAGGSA [r2_249_TrROS] | 0.312 ± 0.17
8 | SAWVIPFEVRLPGSPEQARRQVEEWADNIANRYQQNGFRVVDIKIDEIEPDNVRVRLTIQIVPPGQEIPSAG [r14_973_TrROS] | 2.74 ± 0.08
9 | SAGGSAGGTLKELIDNITRVDPENGKQRMRIPGGAEIEINPEEGQIKIRYYHPGKPQEITLPLPSAGGSAGG [r6_793_TrROS] | 0.46 ± 0.25
10 | SAGGSLVTTEFPGVTITTDPATGVLTVEASPEEVERLIEALGPEFNPVEIRRLPDGSYLLTLPVTPPSAGGS [r8_415_JUSTAS] | 2.13 ± 0.03
11 | SAGGSAGGSTPELLKKLPPGAKVEVETRLVTNEDGSVYKVVKIKIVDKKTNKTLELELVVKLPSAGGSAGGS [r12_892_TrROS_Hall] | 2.13 ± 0.041
12 | SAGGSAGGSAGGSADKNGYVKIPITVFTMERYGNGQPKMETVKVEIYVPPGESIEDLLQSAGGSAGGSAGGS [r4_283_TrROS] | 0.0466 ± 0.19
13 | SAGGSAGGSAGMFVERTLEITFVRPPNGPGPEEVEKRAKELQEKNPHLNVKVKVVDPSEASAGGSAGGSAGG [r17_220_JUSTAS] | 0.669 ± 0.086
14 | SAGGSAGGSAGGMSVTVSREKLPDGSYLVTVTTEVGGGPVTTPYRVPPSLSSAEEVVEKLSAGGSAGGSAGG [r7_75_JUSTAS] | -0.0439 ± 0.14
15 | SAGGSADTITIFFPGMPPEFAKEILEAILYEQGWKPKSVSTERHPEKGMHTIEVRFPNGRKITIMFSAGGSA [r15_958_TrROS] | 2.18 ± 0.06
16 | SAGGSAGGSAMLVIRVVTEDGEEREIEIPEGEELTLEEILAALRTPDGREVPIERVEIFPASAGGSAGGSAG [r3_465_TrROS_Hall] | 2.04 ± 0.046
17 | SAGKINIPPDTDITVKISTEKKPNPPSPEEEEYVGVSYIKVKKNPDGSIEVEEEKFEIISKEEAEKMGLSAG [r5_340_JUSTAS] | 0.16 ± 0.13
18 | SAGKKKFITIVIPIEKKEKLKKAVEELKKKFNAKELAVIPNPEKNEIIEVVVKETKDAIIKIVIIAKESAGG [r19_262_TrMRF] | 1.68 ± 0.036
19 | SAGGSAGGSAGMKTRTITVSVSPEESEEEVRERVEAELPPGSVVEVTRLPDGTVVVTVEESAGGSAGGSAGG [r17_20_JUSTAS] | 0.401 ± 0.043
20 | SAGGALEKILEAIENAPTSVPEVTVEIELPTGTLKATITNKGKPVLITIELTHPDGSKSTITLTFSLSAGGS [r16_642_TrMRF] | 2.78 ± 0.091
21 | SAGNFNIKEQKETDGRRVIEIPMPGSGHEITIVFERNPDGPRKININMNGPMADYLREALPGIDRVEIISAG [r5_933_TrROS] | 0.187 ± 0.31

Row | Sequence | folding stability dG unfold [kcal/mol]
22 | SAGGSAGGSAGGMKVKAYIFENGKLKEIELSEEELKELLKKLPNARILIEVDGKKLELPASAGGSAGGSAGG [r7_188_TrROS_Hall] | 1.93 ± 0.083
23 | SAGGSADPEKVKLIEVEVEVHVEYDPEKGTYTVKAEFPDLTLSFEVPADSIHPDEKFKAPVLILVLSAGGSA [r15_190_TrMRF] | 2.29 ± 0.091
24 | SAGGSAMKVDPSTKVVTVTDPKTGKEYRVNLPDVPPEKGVEVKVDNGKVTVKTEEGVRVIPYSELKSAGGSA [r15_864_JUSTAS] | 0.609 ± 0.044
25 | SPPGWKVIPITLKFRAPIKSVEEAKSQVREIAREIANRHGFPIQVNVTVEYDPEDGWVKVEVPISIWVPKSA [r9_741_TrROS] | 2.75 ± 0.081
26 | SAGGSAEPLVYELPDGTVVLLPPTTAVVYHRLSDGRVVVVGLEVDDPPDPEKALARARAVVEALPDSAGGSA [r15_748_TrMRF] | 0.067 ± 0.25
27 | SAGGSAGGDNWYHITIFRMKIKEVEPRKDPDGEKEPQFNFKIKEVVTIPIPPNDPEKLKDALGASAGGSAGG [r6_738_TrROS] | 0.745 ± 0.079
28 | SAGGSAGGSAGGSKKKVLYIKIDVKPNMTPEEVAKLLQEKFGVKIKKVEVENGYLKIYFSAGGSAGGSAGGS [r4_469_TrROS_Hall] | 2.82 ± 0.062
29 | SAGGSAGGSAMKVPLENVENPKKFPGTGLEIYTFTDKETGKKKIVLVEKPPNKGKKITVIESAGGSAGGSAG [r3_491_JUSTAS] | 0.0339 ± 0.12
30 | SAGGMTTTTTFDGPTDEAFDLPSGVKVEPEPATGGYRVELPPGREVEVTVERSTDPGTVTWTFTFKESAGGS [r16_122_JUSTAS] | 0.3 ± 0.036
31 | SAGGKIWIPMDFLKEIAEEGNIKEIEVNPDDGDMYTIKFPNLADKFGEPVTISIRRPPGGNPWIEIEPSAGG [r13_163_TrROS] | 0.107 ± 0.1
32 | SAGFQIERKRDPDGKYEVEIKFPHPDGHPMRVKIPINPKEGKIKIDEIESTNPGHKQRMEELARWFLKASAG [r5_266_TrROS] | -0.4 ± 0.29
33 | SAGGSAGGMRLEIVVEMSEEEARELAEALRRELEERGYRVRVEVRRLPDGRLVVRVEIEPAPEPSAGGSAGG [r6_597_TrROS_Hall] | 4.47 ± 0.19
34 | SAGGSAGGGNVYVKIEIYPYDPKNGEPQEQDITIPFETKEDAKDEIEKLLNMPNGMWIKIEVVDSAGGSAGG [r7_0_TrROS] | 1.31 ± 0.053
35 | SAGGLAKAVAEELGLPELKVKEVRFAPDPAGPGLTVEVVFELPDGSYLRVEVRFHPDRIEIKAVPLPPSAGG [r19_392_TrMRF] | 2.09 ± 0.093
36 | GLVDEDGKEVFPEVPLVIELDVPENLPDGKKLSPEEVEKLVKGLAEKLKKEYNVKKVEAERKGNKVLILVGS [r1_369_TrMRF] | 0.688 ± 0.058
37 | SAGGGRVAVLKVEVRNPETGETTEVELVLPLPPEMTPEEAEEAAREAARTLAESTGVEVEIKSVELLSAGGS [r8_312_TrMRF] | 3.77 ± 0.068
38 | SAGGSAGGSALPEAEVLEVRFSPDGRRVDAVLRLDGELLVLRIDFPPDGTARIELYPAEDISAGGSAGGSAG [r3_167_TrMRF] | 1.05 ± 0.065
39 | SAKKKITVKIKIEYDKETGTLKVEVEITYPDGKKVKVEAEIDLKTGKITIKVYDKNGKLIAEIEIELPPSAG [r14_524_TrROS_Hall] | 2.68 ± 0.25
40 | SAGGDNIDVERHPHPNNMYMFSITIPPDYPLKIRYPNGPKHEIPIPDPNATIHFMFPPDEPIEIEIYPSAGG [r13_82_TrROS] | 1.12 ± 0.019
41 | SAGGSAGGSAAVPVSETPLGTLPDGRRVRLRRYRDPDGNLYTFLEVEPLPRPLSPADLEKAAASAGGSAGGS [r12_775_TrMRF] | 0.492 ± 0.19
42 | SAGGSAGGKISKEDLEKILEAIKEGKPITIVKVKVEKNENGEEVEKVEVIKTFTAEELKKLGIESAGGSAGG [r6_402_TrROS_Hall] | 1.73 ± 0.14

test: folding stability dG unfold from chymotrypsin proteolysis; higher = more stable
Summary of the method: as §1

Row | Sequence | folding stability dG unfold [kcal/mol]
43 | SAGEVKPGETVTLTIVLSKEELEKLEELAKALPGVEVTEVKVEKLPDGLVRVTITVTKEALEKLKELLESAG [r5_554_TrROS_Hall] | 3.71 ± 0.22
44 | SAGGSAGGSAGGMITVEYDPSRPVYTVTVTDPTTGKTTVIDVPRDDLEQALALAEALLKSAGGSAGGSAGGS [r10_1117_JUSTAS] | 1.95 ± 0.03
45 | SAGGSASLFIPVPPTDTSPVTVEITIGNSKYRATLTVDPNNPNLMTVTLTDPNGGATTTETVPLLDSAGGSA [r15_328_JUSTAS] | 1.78 ± 0.031
46 | SAGGSAGGSAGGEEPVTFMVRIPIRRRDPDGNPEPVAEIDINVTMPPEDAERIIKELIKSAGGSAGGSAGGS [r10_574_TrROS] | -0.547 ± 0.76
47 | SAGMVKIEIEKKEDGEILITITAPSEEELKKLAEELAKELAKKLGIEEIEVKVEKLENGEYKVTIRIKKSAG [r5_772_TrROS_Hall] | 3.09 ± 0.26
48 | SAGGSAGGSAGSTVTLTVDPDTNVATLTAIIGGKPVTATLTFIPNTGKARLPDGTWIDISSAGGSAGGSAGG [r11_395_TrMRF] | 1.03 ± 0.051
49 | SAGGSKIRIVEIQPSNGFTIKIRPKNGKKMTIPIPPDDMNDPENWERFARTLAKWFEKNGVKDIEISAGGSA [r2_249_TrROS] | 0.615 ± 0.37
50 | SAWVIPFEVRLPGSPEQARRQVEEWADNIANRYQQNGFRVVDIKIDEIEPDNVRVRLTIQIVPPGQEIPSAG [r14_973_TrROS] | 2.52 ± 0.054
51 | SAGGSAGGTLKELIDNITRVDPENGKQRMRIPGGAEIEINPEEGQIKIRYYHPGKPQEITLPLPSAGGSAGG [r6_793_TrROS] | 0.776 ± 0.24
52 | SAGGSLVTTEFPGVTITTDPATGVLTVEASPEEVERLIEALGPEFNPVEIRRLPDGSYLLTLPVTPPSAGGS [r8_415_JUSTAS] | 2.042 ± 0.02
53 | SAGGSAGGSTPELLKKLPPGAKVEVETRLVTNEDGSVYKVVKIKIVDKKTNKTLELELVVKLPSAGGSAGGS [r12_892_TrROS_Hall] | 1.65 ± 0.052
54 | SAGGSAGGSAGGSADKNGYVKIPITVFTMERYGNGQPKMETVKVEIYVPPGESIEDLLQSAGGSAGGSAGGS [r4_283_TrROS] | 0.166 ± 0.32
55 | SAGGSAGGSAGMFVERTLEITFVRPPNGPGPEEVEKRAKELQEKNPHLNVKVKVVDPSEASAGGSAGGSAGG [r17_220_JUSTAS] | 0.795 ± 0.1
56 | SAGGSAGGSAGGMSVTVSREKLPDGSYLVTVTTEVGGGPVTTPYRVPPSLSSAEEVVEKLSAGGSAGGSAGG [r7_75_JUSTAS] | -0.659 ± 0.51
57 | SAGGSADTITIFFPGMPPEFAKEILEAILYEQGWKPKSVSTERHPEKGMHTIEVRFPNGRKITIMFSAGGSA [r15_958_TrROS] | 3.1 ± 0.016
58 | SAGGSAGGSAMLVIRVVTEDGEEREIEIPEGEELTLEEILAALRTPDGREVPIERVEIFPASAGGSAGGSAG [r3_465_TrROS_Hall] | 1.75 ± 0.029
59 | SAGKINIPPDTDITVKISTEKKPNPPSPEEEEYVGVSYIKVKKNPDGSIEVEEEKFEIISKEEAEKMGLSAG [r5_340_JUSTAS] | 0.177 ± 0.31
60 | SAGKKKFITIVIPIEKKEKLKKAVEELKKKFNAKELAVIPNPEKNEIIEVVVKETKDAIIKIVIIAKESAGG [r19_262_TrMRF] | 1.26 ± 0.029
61 | SAGGSAGGSAGMKTRTITVSVSPEESEEEVRERVEAELPPGSVVEVTRLPDGTVVVTVEESAGGSAGGSAGG [r17_20_JUSTAS] | 1.99 ± 0.035
62 | SAGGALEKILEAIENAPTSVPEVTVEIELPTGTLKATITNKGKPVLITIELTHPDGSKSTITLTFSLSAGGS [r16_642_TrMRF] | 4.28 ± 0.079
63 | SAGNFNIKEQKETDGRRVIEIPMPGSGHEITIVFERNPDGPRKININMNGPMADYLREALPGIDRVEIISAG [r5_933_TrROS] | 0.275 ± 0.26
